{
  "source": "the RNAGym collection of RNA variant scans (doi:10.7554/elife.90254)",
  "parents": {"B1": {"name": "LINE1-full (parent)", "chain": "UACGUAGGUGGUUUUCCCCUGAUAGUGCUAAGGGGGCCUGGAAGUUUGGACUGGGCAGAGCUCAACACAGCGUGGCAAAGUGGCUGUGGCUAGACUGCCUCUCUGGAUUCCUCGUCACUCAGCAGGGCAUCUCUGAGAGAAAUGCC"}},
  "data": [
    {"variants_of": "B1", "assay": "self-cleavage, relative activity (ratio to wild type); higher = more cleavage; in vitro, sequencing; the parent is a self-cleaving ribozyme", "values": [
      {"variant": "U15C U20A", "self-cleavage": 1.12},
      {"variant": "U15C U20G", "self-cleavage": 0.52},
      {"variant": "U15C U20C", "self-cleavage": 1.33},
      {"variant": "U14G U85A", "self-cleavage": 0.28},
      {"variant": "U14C U85C", "self-cleavage": 0.23},
      {"variant": "U14C U85A", "self-cleavage": 0.08},
      {"variant": "U15C U23G", "self-cleavage": 1.31},
      {"variant": "U14C U109A", "self-cleavage": 1.18},
      {"variant": "U14C U109G", "self-cleavage": 0.65},
      {"variant": "U15A C84U", "self-cleavage": 0.08},
      {"variant": "U14A G36U", "self-cleavage": 1.12},
      {"variant": "U15C A117G", "self-cleavage": 1.83},
      {"variant": "U15C A117C", "self-cleavage": 2.07},
      {"variant": "U14A U134C", "self-cleavage": 1.62},
      {"variant": "U14G A129G", "self-cleavage": 0.84},
      {"variant": "U14G A129U", "self-cleavage": 0.89},
      {"variant": "U14G A117U", "self-cleavage": 0.78},
      {"variant": "U14G A117G", "self-cleavage": 0.39},
      {"variant": "U15A U96C", "self-cleavage": 0.41},
      {"variant": "U15A U96A", "self-cleavage": 0.09},
      {"variant": "U14C U104A", "self-cleavage": 1.04},
      {"variant": "U14C A43G", "self-cleavage": 1.14},
      {"variant": "U14C A43U", "self-cleavage": 1.15},
      {"variant": "U14C A57G", "self-cleavage": 0.89},
      {"variant": "U14C A57C", "self-cleavage": 0.36},
      {"variant": "U15A C28A", "self-cleavage": 1.16},
      {"variant": "U15A A69G", "self-cleavage": 0.22},
      {"variant": "U14G U26A", "self-cleavage": 1.18},
      {"variant": "U14G U81A", "self-cleavage": 1.91},
      {"variant": "U15A U108C", "self-cleavage": 1.49},
      {"variant": "U15C A79C", "self-cleavage": 1.84},
      {"variant": "U15C A79G", "self-cleavage": 1.18},
      {"variant": "U15C G93A", "self-cleavage": 0.07},
      {"variant": "U15A G35C", "self-cleavage": 1.26},
      {"variant": "U15A U100G", "self-cleavage": 1.07},
      {"variant": "U15A U100A", "self-cleavage": 0.59},
      {"variant": "U14G U29C", "self-cleavage": 1.6},
      {"variant": "U15A A140U", "self-cleavage": 0.61},
      {"variant": "U15A A140G", "self-cleavage": 1.11},
      {"variant": "U14A U47A", "self-cleavage": 0.81},
      {"variant": "U14C A129G", "self-cleavage": 1.02},
      {"variant": "U14C U143G", "self-cleavage": 1.93},
      {"variant": "U14C U143C", "self-cleavage": 1.02},
      {"variant": "U14C U143A", "self-cleavage": 0.99},
      {"variant": "U15A A57U", "self-cleavage": 0.14},
      {"variant": "U14C G114A", "self-cleavage": 1.06},
      {"variant": "U15A U130G", "self-cleavage": 1.09},
      {"variant": "U15C A24C", "self-cleavage": 1.84},
      {"variant": "U15C A24G", "self-cleavage": 1.13},
      {"variant": "U15C A24U", "self-cleavage": 1.08},
      {"variant": "U14C U26G", "self-cleavage": 1.61},
      {"variant": "U14C U26C", "self-cleavage": 1.12},
      {"variant": "U15A U115A", "self-cleavage": 1.07},
      {"variant": "U15A A121C", "self-cleavage": 0.82},
      {"variant": "U15A A121U", "self-cleavage": 1.35},
      {"variant": "U15C C145U", "self-cleavage": 1.47},
      {"variant": "U14C A94U", "self-cleavage": 0.29},
      {"variant": "U14C C56U", "self-cleavage": 0.18},
      {"variant": "U14A G137A", "self-cleavage": 0.77},
      {"variant": "U15A C38A", "self-cleavage": 0.77},
      {"variant": "U15A U29A", "self-cleavage": 0.38},
      {"variant": "U15A U62A", "self-cleavage": 0.04},
      {"variant": "U14C U52G", "self-cleavage": 1.51},
      {"variant": "U14C U52C", "self-cleavage": 1.21},
      {"variant": "U15A A65U", "self-cleavage": 0.29},
      {"variant": "U15A U45C", "self-cleavage": 0.66},
      {"variant": "U15A U47G", "self-cleavage": 0},
      {"variant": "U15A U47A", "self-cleavage": 0.76},
      {"variant": "U14C C111U", "self-cleavage": 1.14},
      {"variant": "U14C C111A", "self-cleavage": 1.2},
      {"variant": "U15A G49A", "self-cleavage": 0.74},
      {"variant": "U14C C120U", "self-cleavage": 1.48},
      {"variant": "U15C C19U", "self-cleavage": 1.08},
      {"variant": "U15C G49U", "self-cleavage": 0.94},
      {"variant": "U14A C131U", "self-cleavage": 0.21},
      {"variant": "U15A C128U", "self-cleavage": 0.76},
      {"variant": "U15C A50U", "self-cleavage": 1},
      {"variant": "U15C A136G", "self-cleavage": 1.52},
      {"variant": "U15C A136C", "self-cleavage": 1.99},
      {"variant": "U15C G58A", "self-cleavage": 0.11},
      {"variant": "U15C A69G", "self-cleavage": 0.47},
      {"variant": "U14C A22G", "self-cleavage": 0.99},
      {"variant": "U15A A92G", "self-cleavage": 0.25},
      {"variant": "U14C A64G", "self-cleavage": 0.33},
      {"variant": "U14C A79G", "self-cleavage": 0.84},
      {"variant": "U14C G89U", "self-cleavage": 0.05},
      {"variant": "U15C C120A", "self-cleavage": 1.31},
      {"variant": "U14A U143A", "self-cleavage": 0.99},
      {"variant": "U15C A64U", "self-cleavage": 0.66},
      {"variant": "U15A G55C", "self-cleavage": 0.15},
      {"variant": "U15C G60A", "self-cleavage": 0.04},
      {"variant": "U14C U15A", "self-cleavage": 0.93},
      {"variant": "U14C U15C", "self-cleavage": 1.27},
      {"variant": "U14C A65G", "self-cleavage": 0.12},
      {"variant": "U15C G144U", "self-cleavage": 1.61},
      {"variant": "U14C A42U", "self-cleavage": 1.02},
      {"variant": "U14C G75A", "self-cleavage": 0.82},
      {"variant": "U14C A59G", "self-cleavage": 0.14},
      {"variant": "U14C A142C", "self-cleavage": 1.87},
      {"variant": "U14C G60A", "self-cleavage": 0.11},
      {"variant": "U15C U39C", "self-cleavage": 1.51},
      {"variant": "U15C C131U", "self-cleavage": 2.51},
      {"variant": "U15C C131A", "self-cleavage": 1.74},
      {"variant": "U15A C133U", "self-cleavage": 1.31},
      {"variant": "U14C G40A", "self-cleavage": 0.85},
      {"variant": "U14C G40U", "self-cleavage": 1.06},
      {"variant": "U15C A94G", "self-cleavage": 0.34},
      {"variant": "U15C G27A", "self-cleavage": 1.1},
      {"variant": "U15C C51U", "self-cleavage": 1.26},
      {"variant": "U14G U87C", "self-cleavage": 0.41},
      {"variant": "U15A A136G", "self-cleavage": 1.26},
      {"variant": "U15A C103A", "self-cleavage": 1.27},
      {"variant": "U15C A31U", "self-cleavage": 0.95},
      {"variant": "U15C A31G", "self-cleavage": 0.75},
      {"variant": "U15C U46G", "self-cleavage": 1.15},
      {"variant": "U15C U46A", "self-cleavage": 1.41},
      {"variant": "U14C A117U", "self-cleavage": 1.3},
      {"variant": "U15C C101G", "self-cleavage": 1.31},
      {"variant": "U14G A50U", "self-cleavage": 1.14},
      {"variant": "U14C C116U", "self-cleavage": 1.14},
      {"variant": "U15A A67G", "self-cleavage": 0.41},
      {"variant": "U15A C118U", "self-cleavage": 0.49},
      {"variant": "U14A U112A", "self-cleavage": 1.33},
      {"variant": "U14A U112C", "self-cleavage": 0.79},
      {"variant": "U15A C19A", "self-cleavage": 0.79},
      {"variant": "U15A C19U", "self-cleavage": 0.93},
      {"variant": "U15A G36U", "self-cleavage": 1.31},
      {"variant": "U15C C16U", "self-cleavage": 1.02},
      {"variant": "U14C G33A", "self-cleavage": 1.02},
      {"variant": "U14C G33U", "self-cleavage": 1.14},
      {"variant": "U15C C17A", "self-cleavage": 1.28},
      {"variant": "U15A A30U", "self-cleavage": 0.85},
      {"variant": "U14C A69U", "self-cleavage": 0.07},
      {"variant": "U14C A69C", "self-cleavage": 0.08},
      {"variant": "U15A U85G", "self-cleavage": 0.28},
      {"variant": "U15A U85A", "self-cleavage": 0.11},
      {"variant": "U15A A138U", "self-cleavage": 1.07},
      {"variant": "U15A A138G", "self-cleavage": 1.45},
      {"variant": "U14C G106U", "self-cleavage": 0.66},
      {"variant": "U15A C95U", "self-cleavage": 0.41},
      {"variant": "U14A C99G", "self-cleavage": 0.63},
      {"variant": "U14A U15C", "self-cleavage": 1.02},
      {"variant": "U15C G53A", "self-cleavage": 1.34},
      {"variant": "U14C U81C", "self-cleavage": 1.43},
      {"variant": "U15C A67C", "self-cleavage": 0.07},
      {"variant": "U15C A67U", "self-cleavage": 0.17},
      {"variant": "U14G A121U", "self-cleavage": 0.95},
      {"variant": "U14A U115A", "self-cleavage": 0.7},
      {"variant": "U14A U115C", "self-cleavage": 1.06},
      {"variant": "U14G A78G", "self-cleavage": 1.23},
      {"variant": "U14A U87A", "self-cleavage": 0.15},
      {"variant": "U14C A136U", "self-cleavage": 1.42},
      {"variant": "U14C A136G", "self-cleavage": 1.45},
      {"variant": "U14C A136C", "self-cleavage": 1.36},
      {"variant": "U15C C123U", "self-cleavage": 1.72},
      {"variant": "U15C A43G", "self-cleavage": 1.4},
      {"variant": "U15C A43U", "self-cleavage": 1.09},
      {"variant": "U15A G86A", "self-cleavage": 0.07},
      {"variant": "U15C G41U", "self-cleavage": 0.57},
      {"variant": "U15C U47A", "self-cleavage": 1.42},
      {"variant": "U15C U47C", "self-cleavage": 1.64},
      {"variant": "U14C G144A", "self-cleavage": 1.13},
      {"variant": "U14C C99U", "self-cleavage": 0.75},
      {"variant": "U14G A24G", "self-cleavage": 0.79},
      {"variant": "U15C G54A", "self-cleavage": 0.74},
      {"variant": "U14C A24U", "self-cleavage": 1.07},
      {"variant": "U14C A24G", "self-cleavage": 0.81}
    ]}
  ]
}
